Experimental data reported in the supplement of paper PMC7877785.
± gives the uncertainty stated by the source.

Test: self-splicing fitness, log relative to wild type (ln ratio); higher = more splicing; Tetrahymena group I intron in knt gene, E. coli kanamycin selection, DiMSum; sequences stand for … in CUCUCU…GGAGGGAAAAGUUAUCAGGCAUGCACCUGGUAGCUAGUCUUUAAACCAAUAGAUUGCAUCGGUUUAAAAGGCAAGACCGUCAAAUUGCGGGAAAGGGGUCAACAGCCGUUCAGUACCAAGUCUCAGGGGAAACUUUGAGAUGGCCUUGCAAAGGGUAUGGUAAUAAGCUGACGGACAUGGUCCUAACCACGCAGCCAAGUCCUAAGUCAACAGAUCUUCUGUUGAUAUGGAUGCAGUUCACAGACUAAAUGUCGGUCGGGGAAGAUGUAUUCUUCUCAUAAGAUAUAGUCGGACCUCUCCUUAAUGGGAGCUAGCGGAUGAAGUGAUGCAACACUGGAGCCGCUGGGAACUAAUUUGUAUGCGAAAGUAUAUUGAUUAGUUUUGGAGUACUCGUGGUCG
In short: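 A randomised library covering all eight P1ex-region intron nucleotides was built with the intron in the knt kanamycin-resistance gene on pET-22b(+) and held in E. coli BL21(DE3). Cells were grown overnight at 37°C or 30°C on LB agar, with or without 25 μg/mL kanamycin, plus 100 μg/mL carbenicillin, 50 μM IPTG and 0.2% rhamnose, and pooled colonies were amplicon-sequenced on an Illumina HiSeq 2500. DiMSum fitness is the error-weighted combination of wild-type-normalised replicate fold changes, kanamycin versus none.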

Row | Sequence | self-splicing fitness (ln) (37 °C) | self-splicing fitness (ln) (30 °C)
1 | GAUGAGCAAUAUUACGCGGC | -2.77 ± 0.38 | 
2 | GCCAAGCAAUAUUACGAGGC | -1.93 ± 0.21 | -2.66 ± 0.16
3 | CAAAAGCAAUAUUACGCCCU | -0.434 ± 0.17 | -2.13 ± 0.17
4 | CCUUAGCAAUAUUACGGCGC |  | -2.98 ± 0.27
5 | CAAUAGCAAUAUUACGAAAG | -0.294 ± 0.13 | -1.47 ± 0.082
6 | CUAUAGCAAUAUUACGCUGG | -2.05 ± 0.32 | -3.36 ± 0.37
7 | CUGAAGCAAUAUUACGCGAG | -0.527 ± 0.11 | -0.671 ± 0.088
8 | GGUAAGCAAUAUUACGGAUC | 0.125 ± 0.21 | 0.0183 ± 0.15
9 | GCAGAGCAAUAUUACGUGGG | -3.03 ± 0.15 | -3.55 ± 0.12
10 | UCUGAGCAAUAUUACGGAUA | -1.57 ± 0.25 | -3.08 ± 0.47
11 | CACCAGCAAUAUUACGUAUG | -0.105 ± 0.055 | -0.556 ± 0.041
12 | GCCUAGCAAUAUUACGCAAG |  | -3.71 ± 0.47
13 | UGGCAGCAAUAUUACGGGGG | -2.84 ± 0.29 | -3.38 ± 0.23
14 | UAAAAGCAAUAUUACGUACC | -0.361 ± 0.21 | -2.18 ± 0.25
15 | GGUUAGCAAUAUUACGGUCG | -0.0539 ± 0.18 | -0.323 ± 0.13
16 | UAUUAGCAAUAUUACGUUAU | -2.2 ± 0.22 | -2.68 ± 0.19
17 | CUCAAGCAAUAUUACGUGCC | -2.29 ± 0.17 | -2.96 ± 0.11
18 | CUGCAGCAAUAUUACGUGAC | 0.23 ± 0.084 | -0.842 ± 0.063
19 | UUACAGCAAUAUUACGGAAU | -2.7 ± 0.17 | -3.68 ± 0.2
20 | CGAGAGCAAUAUUACGAACG | -1.04 ± 0.21 | -2.48 ± 0.2
21 | CCAAAGCAAUAUUACGCAAA | -1.72 ± 0.17 | -3.41 ± 0.25
22 | UUCGAGCAAUAUUACGUCGC |  | -2.09 ± 0.21
23 | GUCAAGCAAUAUUACGAAGC | -2.54 ± 0.2 | -3.84 ± 0.27
24 | AUAAAGCAAUAUUACGUCUG | -0.47 ± 0.11 | -0.676 ± 0.079
25 | AUCAAGCAAUAUUACGUCAC | -2.28 ± 0.3 | -2.32 ± 0.16

Row | Sequence | self-splicing fitness (ln) (37 °C) | self-splicing fitness (ln) (30 °C)
26 | CUCAAGCAAUAUUACGCUCG | -0.979 ± 0.33 | 
27 | UAUAAGCAAUAUUACGGCAG | -0.0977 ± 0.14 | -0.0494 ± 0.099
28 | GGCUAGCAAUAUUACGAGGU | -1.07 ± 0.18 | -3.02 ± 0.42
29 | GGUAAGCAAUAUUACGUUGU | -1.61 ± 0.36 | -3.1 ± 0.26
30 | UGUCAGCAAUAUUACGAUCA | -0.0719 ± 0.11 | -0.048 ± 0.086
31 | UCGAAGCAAUAUUACGUACU | -1.67 ± 0.12 | -2.88 ± 0.1
32 | CGCUAGCAAUAUUACGGGAU | -2.4 ± 0.26 | -3.77 ± 0.36
33 | ACUGAGCAAUAUUACGUUGG | -2.17 ± 0.18 | -4.04 ± 0.2
34 | CCCGAGCAAUAUUACGGAGA | -1.36 ± 0.11 | -3.28 ± 0.14
35 | AAGUAGCAAUAUUACGUCUA | 0.263 ± 0.1 | -0.618 ± 0.09
36 | ACUGAGCAAUAUUACGACCG | -0.981 ± 0.23 | -1.3 ± 0.17
37 | GGCGAGCAAUAUUACGCACG | -2.71 ± 0.36 | -2.49 ± 0.28
38 | UAUCAGCAAUAUUACGCUGU | -2.16 ± 0.15 | -3.25 ± 0.2
39 | GAGUAGCAAUAUUACGAACG |  | -2.36 ± 0.48
40 | GUAGAGCAAUAUUACGGGUU | -2.15 ± 0.22 | -4.13 ± 0.3
41 | CCUAAGCAAUAUUACGACUU | -2.4 ± 0.13 | -4.37 ± 0.17
42 | CUUCAGCAAUAUUACGGAGU | -3.23 ± 0.28 | -3.27 ± 0.15
43 | UGCCAGCAAUAUUACGCAUG | -1.43 ± 0.13 | -1.28 ± 0.085
44 | UCCGAGCAAUAUUACGCUUU | -3.01 ± 0.47 | -2.64 ± 0.26
45 | UCCGAGCAAUAUUACGUGGU | -2.29 ± 0.21 | -2.83 ± 0.29
46 | AGGAAGCAAUAUUACGUGGU | -2.61 ± 0.25 | -3.36 ± 0.15
47 | CUUCAGCAAUAUUACGUGCA | -3.83 ± 0.3 | -3.53 ± 0.25
48 | GCACAGCAAUAUUACGCGGU | -1.87 ± 0.11 | -4.01 ± 0.2
49 | UAUUAGCAAUAUUACGGGUG | 0.0549 ± 0.098 | -0.149 ± 0.069
50 | UAUAAGCAAUAUUACGUUCA | -0.352 ± 0.14 | -0.586 ± 0.09

Row | Sequence | self-splicing fitness (ln) (37 °C) | self-splicing fitness (ln) (30 °C)
51 | UGUAAGCAAUAUUACGUGGG | -2.42 ± 0.22 | -3.6 ± 0.19
52 | ACAUAGCAAUAUUACGUGAC | -2.16 ± 0.15 | -3.15 ± 0.15
53 | GAUAAGCAAUAUUACGGAAU | -2.28 ± 0.14 | -3.09 ± 0.14
54 | UAAGAGCAAUAUUACGAGUC |  | -3.17 ± 0.49
55 | UUCUAGCAAUAUUACGUUUC | -2.47 ± 0.3 | -2.75 ± 0.39
56 | GAGCAGCAAUAUUACGACGC | 0.534 ± 0.1 | 0.00947 ± 0.079
57 | UGGUAGCAAUAUUACGGGGG | -2.45 ± 0.33 | -3.73 ± 0.32
58 | GGUGAGCAAUAUUACGUCAC |  | -3.1 ± 0.34
59 | GGCUAGCAAUAUUACGCUCU | -0.975 ± 0.19 | -2.35 ± 0.31
60 | CCGCAGCAAUAUUACGUUAC | -2.29 ± 0.14 | -3.36 ± 0.14
61 | UGUGAGCAAUAUUACGCGAG | -1.63 ± 0.23 | -2.69 ± 0.22
62 | CUACAGCAAUAUUACGCAAA | -3.49 ± 0.25 | -3.36 ± 0.24
63 | GCGGAGCAAUAUUACGCAAU |  | -3.51 ± 0.43
64 | GACUAGCAAUAUUACGCAGC | -2.2 ± 0.31 | -3.5 ± 0.23
65 | UGUAAGCAAUAUUACGGACU | 0.0199 ± 0.11 | -0.351 ± 0.094
66 | UCUCAGCAAUAUUACGACGU | -0.541 ± 0.08 | -0.386 ± 0.07
67 | ACCGAGCAAUAUUACGAGAG | -2.63 ± 0.18 | -3.89 ± 0.28
68 | CAGCAGCAAUAUUACGUUUA | -2.02 ± 0.12 | -2.11 ± 0.12
69 | AUUAAGCAAUAUUACGAAUA | -0.938 ± 0.21 | -1.29 ± 0.21
70 | CUCUAGCAAUAUUACGUAAG | -0.426 ± 0.15 | -1.57 ± 0.11
71 | CUCCAGCAAUAUUACGGCAG | -1.75 ± 0.15 | -4.58 ± 0.21
72 | CCUCAGCAAUAUUACGUCGG | -2.59 ± 0.19 | -3.36 ± 0.16
73 | CGCGAGCAAUAUUACGAACG | -2.08 ± 0.32 | -3.04 ± 0.43
74 | UCCAAGCAAUAUUACGCGCC | -2.31 ± 0.32 | -3.47 ± 0.27
75 | CGACAGCAAUAUUACGUCCG | -1.04 ± 0.12 | -1.31 ± 0.12

Row | Sequence | self-splicing fitness (ln) (37 °C) | self-splicing fitness (ln) (30 °C)
76 | CUUUAGCAAUAUUACGUCUC | -3.21 ± 0.3 | -2.64 ± 0.24
77 | UGAAAGCAAUAUUACGCUCA | -0.0203 ± 0.25 | -1 ± 0.19
78 | GGACAGCAAUAUUACGCGGU | -1.6 ± 0.15 | -4.03 ± 0.23
79 | UAUAAGCAAUAUUACGUGUU | -2.22 ± 0.22 | -3.24 ± 0.17
80 | GUAGAGCAAUAUUACGCAUG | -0.699 ± 0.19 | -1.94 ± 0.13
81 | GGCUAGCAAUAUUACGAUAA | -1.75 ± 0.16 | -1.28 ± 0.17
82 | CCAUAGCAAUAUUACGAACA | -2.41 ± 0.25 | -3.77 ± 0.22
83 | CCGUAGCAAUAUUACGACAA | -3.19 ± 0.33 | -3.54 ± 0.27
84 | GUGAAGCAAUAUUACGGGGG | -3.08 ± 0.14 | -2.67 ± 0.14
85 | UAUCAGCAAUAUUACGAGUU | -0.829 ± 0.089 | -2.58 ± 0.1
86 | AUGCAGCAAUAUUACGAACU | 0.379 ± 0.11 | -0.238 ± 0.1
87 | UAACAGCAAUAUUACGAAAU | -2.52 ± 0.18 | -3.46 ± 0.14
88 | AGAAAGCAAUAUUACGUUUC | -2.09 ± 0.1 | -3.82 ± 0.15
89 | CGUAAGCAAUAUUACGGCCU | -1.54 ± 0.22 | -3.28 ± 0.26
90 | UUGCAGCAAUAUUACGAAGU | -1.75 ± 0.36 | -2.38 ± 0.23
91 | AGCGAGCAAUAUUACGAGUU | -1.21 ± 0.18 | -2.61 ± 0.19
92 | AGCGAGCAAUAUUACGACGC | 0.245 ± 0.2 | -1.92 ± 0.25
93 | GGGCAGCAAUAUUACGACCA | 0.951 ± 0.41 | -0.297 ± 0.28
94 | AAGAAGCAAUAUUACGCUGA | -2.04 ± 0.18 | -2.47 ± 0.14
95 | CGAUAGCAAUAUUACGGGCC | -1.8 ± 0.4 | -1.62 ± 0.49
96 | AUCGAGCAAUAUUACGUGGA | -2.33 ± 0.22 | -3.68 ± 0.37
97 | AAACAGCAAUAUUACGGUAG | -2.02 ± 0.12 | -2.8 ± 0.12
98 | UAGAAGCAAUAUUACGAGGA | -2.06 ± 0.15 | -3.7 ± 0.2
